Paper PMC4353811
Residue numbers refer to the chain shown, from its start.

Legend:
Psy3-Csm2 = target: T1, Psy3-Csm2 (Saccharomyces cerevisiae, UniProt Q12318;P40465 1-242;1-213); test: EMSA
T1 sequence 1: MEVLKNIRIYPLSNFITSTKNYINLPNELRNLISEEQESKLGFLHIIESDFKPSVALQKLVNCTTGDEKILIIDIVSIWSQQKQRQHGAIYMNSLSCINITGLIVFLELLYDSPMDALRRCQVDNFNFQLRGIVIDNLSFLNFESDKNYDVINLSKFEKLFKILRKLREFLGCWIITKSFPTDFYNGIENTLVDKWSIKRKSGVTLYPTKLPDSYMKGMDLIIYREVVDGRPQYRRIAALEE
T1 sequence 2: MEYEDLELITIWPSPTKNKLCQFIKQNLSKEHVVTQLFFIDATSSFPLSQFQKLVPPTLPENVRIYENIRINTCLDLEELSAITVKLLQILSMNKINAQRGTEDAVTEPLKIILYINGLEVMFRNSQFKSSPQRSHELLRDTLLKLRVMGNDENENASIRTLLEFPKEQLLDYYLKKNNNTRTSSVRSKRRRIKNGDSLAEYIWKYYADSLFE

Rad51;Psy3-Csm2 = Rad51;Psy3-Csm2 (Saccharomyces cerevisiae;Saccharomyces …, UniProt P25454;Q12318;P40465 1-400;1-242;1-213, |); test: EMSA and supershift
Sequence of Rad51;Psy3-Csm2 (P25454 whole entry, one chain of several): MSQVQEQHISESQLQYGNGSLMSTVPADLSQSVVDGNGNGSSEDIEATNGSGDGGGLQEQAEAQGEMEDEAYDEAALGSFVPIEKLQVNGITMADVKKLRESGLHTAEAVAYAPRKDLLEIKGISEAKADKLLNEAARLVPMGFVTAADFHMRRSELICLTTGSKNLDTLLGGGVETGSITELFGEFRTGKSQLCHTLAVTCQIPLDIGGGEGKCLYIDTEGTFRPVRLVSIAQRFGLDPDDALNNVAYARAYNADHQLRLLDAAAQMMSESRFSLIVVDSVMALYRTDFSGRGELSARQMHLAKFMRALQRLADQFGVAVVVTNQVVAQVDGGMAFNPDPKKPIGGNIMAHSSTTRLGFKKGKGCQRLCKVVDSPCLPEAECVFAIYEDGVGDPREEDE

Psy3-Csm2-I40A/I83A = target: T2, Psy3-Csm2-I40A/I83A (Saccharomyces cerevisiae, UniProt Q12318;P40465 1-242;1-213, I40A;I83A;Csm2:); test: EMSA
T2 sequence 1: T1 sequence 1
T2 sequence 2: T1 sequence 2 with I40A, I83A

Psy3-Csm2-I83A/L87A = target: T3, Psy3-Csm2-I83A/L87A (Saccharomyces cerevisiae, UniProt Q12318;P40465 1-242;1-213, I83A;L87A;Csm2:); test: EMSA
T3 sequence 1: T1 sequence 1
T3 sequence 2: T1 sequence 2 with I83A, L87A

Measured: binding result

B1: 60-mer oligo-ssDNA (ssDNA)
DNA: TGGGTGAACCTGCAGGTGGGCAAAGATGTCCTAGCAATCCATTGTCTATGACGTCAAGCT
binds: Psy3-Csm2 | Rad51;Psy3-Csm2 | Psy3-Csm2-I40A/I83A | Psy3-Csm2-I83A/L87A
